Source: patent publication US20240417436A1 (BRIGHT PEAK THERAPEUTICS, published 2024)
Bridges are numbered along the chain shown (N, C = ends). Primed or numbered codes have the meaning given here. [ ]: non-standard residue; d: D form. cleavable peptide, 4x polyethylene glycol = not defined here; Ygp = O-(8x polyethylene glycol-amino)-tyrosine; Yn3 = O-(9x polyethylene glycol-azido)-tyrosine; 4x polyethylene glycol = not defined here; cleavable moiety, PEG9 = not defined here; PEG16′ = 16x polyethylene glycol; PEG4′ = 4x polyethylene glycol; hSer = N[C@@H](CCO)C(=O)O; Nle = CCCC[C@H](N)C(=O)O

T1: IL-2 receptor βγ complex on pan T cells (human, UniProt P14784 27-551; P31785 23-369)
T1 sequence (looked up) 1: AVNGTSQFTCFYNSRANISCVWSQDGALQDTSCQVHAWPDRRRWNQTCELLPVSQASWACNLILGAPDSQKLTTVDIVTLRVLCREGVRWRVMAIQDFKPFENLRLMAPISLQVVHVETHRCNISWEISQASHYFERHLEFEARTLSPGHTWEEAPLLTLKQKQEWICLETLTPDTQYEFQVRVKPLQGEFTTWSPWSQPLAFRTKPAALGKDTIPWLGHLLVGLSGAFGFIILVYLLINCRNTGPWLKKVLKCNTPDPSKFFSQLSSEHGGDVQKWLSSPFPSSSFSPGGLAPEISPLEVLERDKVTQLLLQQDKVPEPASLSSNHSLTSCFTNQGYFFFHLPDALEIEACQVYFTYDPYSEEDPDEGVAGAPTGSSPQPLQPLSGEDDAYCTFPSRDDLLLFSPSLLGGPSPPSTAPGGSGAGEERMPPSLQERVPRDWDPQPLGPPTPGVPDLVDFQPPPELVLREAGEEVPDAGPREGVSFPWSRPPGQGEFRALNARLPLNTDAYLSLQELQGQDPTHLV
T1 sequence (looked up) 2: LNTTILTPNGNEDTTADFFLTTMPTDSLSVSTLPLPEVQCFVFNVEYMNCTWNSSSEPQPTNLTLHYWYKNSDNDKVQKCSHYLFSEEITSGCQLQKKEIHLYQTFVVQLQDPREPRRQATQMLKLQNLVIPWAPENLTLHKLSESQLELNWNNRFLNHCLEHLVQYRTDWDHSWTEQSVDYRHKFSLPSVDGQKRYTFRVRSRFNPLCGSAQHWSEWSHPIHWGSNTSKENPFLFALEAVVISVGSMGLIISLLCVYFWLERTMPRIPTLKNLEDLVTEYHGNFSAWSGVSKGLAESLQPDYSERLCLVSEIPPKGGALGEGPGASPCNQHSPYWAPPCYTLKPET


Target: T1, IL-2 receptor βγ complex on pan T cells
Assay: cell-based or functional assay

Row | Average EC50, pSTAT5 assay in pan T cells, MMP2 cleaved molecule [nM] | Average EC50, pSTAT5 assay in pan T cells, intact molecule [nM] | Binder
1 | 2.27 |  | CMP-159, MMP2 cleaved (ligand, not fully specified (bridges); ends and bridges not checked; also: cleaved by MMP2 (macrocycle opened), cut site not given here) PLGLAGAPTSSSTKKTQLQLEHLLLDLE[Nle]ILNGINNYKNPKLTR[Nle]L[hSer][Yn3]KF[Ygp][Nle]PKKATELKHLQCLEEELKPLEEVL[hSer]LAQSKNFHLRPRDLISNINVIVLELKGSETTF[hSer]CEYADETATIVEFLNRWITFSQSIISTLT
2 | 21.3 |  | CMP-156, MMP2 cleaved (ligand, also: MMP2-cleaved cleavable peptide, macrocycle opened, cut site not given here, remnants on Glu19 and N-terminus unspecified) APTSSSTKKTQLQLEHLLEDLQ[Nle]ILNGINNYKNPKLTR[Nle]L[hSer][Yn3]KF[Ygp][Nle]PKKATELKHLQCLEEELKPLEEVL[hSer]LAQSKNFHLRPRDLISNINVIVLELKGSETTF[hSer]CEYADETATIVEFLNRWITFSQSIISTLT
3 |  | 27.8 | CMP-160 (ligand, linker N-26 via cleavable moiety, PEG9; ends not checked; also: cleavable moiety sequence not given here) APTSSSTKKTQLQLEHLLLDLQ[Nle]ILEGINNYKNPKLTR[Nle]L[hSer][Yn3]KF[Ygp][Nle]PKKATELKHLQCLEEELKPLEEVL[hSer]LAQSKNFHLRPRDLISNINVIVLELKGSETTF[hSer]CEYADETATIVEFLNRWITFSQSIISTLT
4 | 4.2 |  | CMP-154, MMP2 cleaved (ligand, also: macrocycle (9x PEG linker between residue 1 and Glu35 side chain) opened by MMP2 cleavage within PLGLAG, cut site not given here) PLGLAGAPTSSSTKKTQLQLEHLLLDLQ[Nle]ILNGIENYKNPKLTR[Nle]L[hSer][Yn3]KF[Ygp][Nle]PKKATELKHLQCLEEELKPLEEVL[hSer]LAQSKNFHLRPRDLISNINVIVLELKGSETTF[hSer]CEYADETATIVEFLNRWITFSQSIISTLT
5 | 2.95 |  | CMP-152, MMP2 cleaved (ligand, also: macrocycle (glutaric acid-9x PEG linker between residue 1 and Lys38 side chain) opened by MMP2 cleavage within PLGLAG, cut site not given here) PLGLAGAPTSSSTKKTQLQLEHLLLDLQ[Nle]ILNGINNYKNPKLTR[Nle]L[hSer][Yn3]KF[Ygp][Nle]PKKATELKHLQCLEEELKPLEEVL[hSer]LAQSKNFHLRPRDLISNINVIVLELKGSETTF[hSer]CEYADETATIVEFLNRWITFSQSIISTLT
6 |  | 86 | CMP-156 (ligand, linker N-19 via cleavable peptide, 4x polyethylene glycol; not fully specified; reading uncertain) APTSSSTKKTQLQLEHLLEDLQ[Nle]ILNGINNYKNPKLTR[Nle]L[hSer][Yn3]KF[Ygp][Nle]PKKATELKHLQCLEEELKPLEEVL[hSer]LAQSKNFHLRPRDLISNINVIVLELKGSETTF[hSer]CEYADETATIVEFLNRWITFSQSIISTLT
7 |  | 24.7 | CMP-154 (ligand, linker N-35 via 9x polyethylene glycol) PLGLAGAPTSSSTKKTQLQLEHLLLDLQ[Nle]ILNGIENYKNPKLTR[Nle]L[hSer][Yn3]KF[Ygp][Nle]PKKATELKHLQCLEEELKPLEEVL[hSer]LAQSKNFHLRPRDLISNINVIVLELKGSETTF[hSer]CEYADETATIVEFLNRWITFSQSIISTLT
8 |  | 16.1 | CMP-152 (ligand, linker N-38 via 1,5‑pentanedioic acid‑9x polyethylene glycol) PLGLAGAPTSSSTKKTQLQLEHLLLDLQ[Nle]ILNGINNYKNPKLTR[Nle]L[hSer][Yn3]KF[Ygp][Nle]PKKATELKHLQCLEEELKPLEEVL[hSer]LAQSKNFHLRPRDLISNINVIVLELKGSETTF[hSer]CEYADETATIVEFLNRWITFSQSIISTLT
9 | 1.81 |  | CMP-151, MMP2 cleaved (ligand, disulfide 58-105; also: MMP2-cleaved cleavable peptide, macrocycle opened, cut site not given here, remnants on Lys23 and Ala1 N-terminus unspecified) APTSSSTKKTQLQLEHLLLDLQKILNGINNYKNPKLTR[Nle]L[hSer][Yn3]KF[Ygp][Nle]PKKATELKHLQCLEEELKPLEEVL[hSer]LAQSKNFHLRPRDLISNINVIVLELKGSETTF[hSer]CEYADETATIVEFLNRWITFSQSIISTLT
10 | 10 |  | CMP-157, MMP2 cleaved (ligand, also: macrocycle (4x PEG linker between residue 1 and Glu25 side chain) opened by MMP2 cleavage within PLGLAG, cut site not given here) PLGLAGAPTSSSTKKTQLQLEHLLEDLQ[Nle]ILNGINNYKNPKLTR[Nle]L[hSer][Yn3]KF[Ygp][Nle]PKKATELKHLQCLEEELKPLEEVL[hSer]LAQSKNFHLRPRDLISNINVIVLELKGSETTF[hSer]CEYADETATIVEFLNRWITFSQSIISTLT
11 |  | 35.5 | CMP-159 (ligand, linker N-28 via PEG4′; ends not checked) PLGLAGAPTSSSTKKTQLQLEHLLLDLE[Nle]ILNGINNYKNPKLTR[Nle]L[hSer][Yn3]KF[Ygp][Nle]PKKATELKHLQCLEEELKPLEEVL[hSer]LAQSKNFHLRPRDLISNINVIVLELKGSETTF[hSer]CEYADETATIVEFLNRWITFSQSIISTLT
12 | 2.9 |  | CMP-155, MMP2 cleaved (ligand, also: MMP2-cleaved cleavable peptide, macrocycle opened, cut site not given here, remnants on Glu29 and N-terminus unspecified) APTSSSTKKTQLQLEHLLLDLQ[Nle]ILNGIENYKNPKLTR[Nle]L[hSer][Yn3]KF[Ygp][Nle]PKKATELKHLQCLEEELKPLEEVL[hSer]LAQSKNFHLRPRDLISNINVIVLELKGSETTF[hSer]CEYADETATIVEFLNRWITFSQSIISTLT
13 |  | 54.5 | CMP-157 (ligand, linker N-25 via 4x polyethylene glycol; reading uncertain) PLGLAGAPTSSSTKKTQLQLEHLLEDLQ[Nle]ILNGINNYKNPKLTR[Nle]L[hSer][Yn3]KF[Ygp][Nle]PKKATELKHLQCLEEELKPLEEVL[hSer]LAQSKNFHLRPRDLISNINVIVLELKGSETTF[hSer]CEYADETATIVEFLNRWITFSQSIISTLT
14 | 3.61 |  | CMP-139, MMP2 cleaved (ligand, numbers in words are those of the source; ends and bridges not checked; also: cleavable peptide cut by MMP2, macrocycle opened, cut site not given here) [PEG16′]APTSSSTKKTQLQLEHLLLDLQ[Nle]ILNGIE(PEG16′)NYKNPKLTR[Nle]L[hSer][Yn3]KF[Ygp][Nle]PKKATELKHLQCLEEELKPLEEVL[hSer]LAQSKNFHLRPRDLISNINVIVLELKGSETTF[hSer]CEYADETATIVEFLNRWITFSQSIISTLT
15 | 1.95 |  | CMP-158, MMP2 cleaved (ligand, also: MMP2-cleaved cleavable peptide, macrocycle opened, cut site not given here, remnants on Glu22 and N-terminus unspecified) APTSSSTKKTQLQLEHLLLDLE[Nle]ILNGINNYKNPKLTR[Nle]L[hSer][Yn3]KF[Ygp][Nle]PKKATELKHLQCLEEELKPLEEVL[hSer]LAQSKNFHLRPRDLISNINVIVLELKGSETTF[hSer]CEYADETATIVEFLNRWITFSQSIISTLT
16 |  | 36.6 | CMP-158 (ligand, linker N-22 via cleavable peptide, 4x polyethylene glycol; not fully specified; reading uncertain) APTSSSTKKTQLQLEHLLLDLE[Nle]ILNGINNYKNPKLTR[Nle]L[hSer][Yn3]KF[Ygp][Nle]PKKATELKHLQCLEEELKPLEEVL[hSer]LAQSKNFHLRPRDLISNINVIVLELKGSETTF[hSer]CEYADETATIVEFLNRWITFSQSIISTLT
